Results as given in the supplement of paper PMC12042874.
± gives the uncertainty stated by the source.

Test: amyloid nucleation score (Sup35N fusion, yeast selection) (log enrichment); library NNK1; higher = more nucleation; inactive = no reads after selection
How it was run: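 Psi-negative yeast expressed Sup35N fused to peptides of 20 random codons. They were induced 24 hours with 100 μM copper sulfate, grown 7 days at 30°C without adenine and uracil, and their plasmid inserts from input and output were Illumina-sequenced. The nucleation score is the DiMSum log enrichment of output over input reads, centred on the mode score of non-aggregating sequences. Sequences with under 100 input reads were excluded.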

Substance	amyloid nucleation score
SMSFRCLDAKDVPDRASQGY	-0.385 ± 0.39
SLTFVPTLFTCMDLMHC	7.415 ± 0.067
NYHFDWLRFFRHQREVGEVA	0.4 ± 0.8
CNICNPI	-0.585 ± 1.6
WCARNISRCPSNISGNLGMK	-0.461 ± 0.69
IFSNQLYVERIVLDENKALL	3.62 ± 0.094
LAPASLSSSGYKNCFNRTVR	4.08 ± 0.11
QGAGILTYPRALRHWVVRRM	0.12 ± 0.51
YCVIHSIRLGRIHLDCFWDF	inactive
SSVCGKL	-0.211 ± 0.7
QLPAFGINMSRLSNSCSYGC	0.095 ± 0.59
NGYWLSFWTSRY	1.63 ± 0.46
FLMLRAYESMARFYDVLWIG	0.088 ± 0.37
SPCWSHF	inactive
GFELVNVVGVIASLYNIIIV	2.92 ± 0.2
IEIGSSF	0.118 ± 0.6
RARLNRFVICVSLDMLVLWM	-0.709 ± 0.45
LTGLVMTVCFFWKARRF	0.845 ± 0.86
IKMDFTFICIRVRGV	0.343 ± 1.4
YWVWYDVYGSWLGSWYYKRG	0.278 ± 0.52
VSYRTSMSVVLRCGFYCSAY	3.22 ± 0.14
GSGVGKLCGLCSPG	0.274 ± 0.69

Substance	amyloid nucleation score
CQSFIGTDTKFVIPDMVLAA	inactive
RSKNWMVNRDWGSKVDRLAN	0.089 ± 0.86
RQSQRWYFLLCGYYKAFFRR	1.63 ± 0.73
TLWVNIG	-1.44 ± 2.7
GDVLVSTNHIGFFKGPG	1.91 ± 0.27
RRGVV	0.659 ± 0.93
LSMCYIFCDARYLYSQCFGV	4.38 ± 0.12
VLPRVWCCNADNDSIVDFRG	2.35 ± 0.097
YCDSWSVSFLICRSPFQNYM	-1.12 ± 0.56
EGTLSMALTL	0.849 ± 0.49
NPPGGDIYEC	-0.721 ± 0.53
GSWFYIFRV	0.089 ± 0.34
CLFSRELTLSPLWDLVK	1.79 ± 0.15
CSRNTSVA	1.01 ± 0.57
WLSHGIEVVVHKTSSVSYWR	-0.796 ± 1.1
FSSQYQMSAGVF	-0.013 ± 0.56
YAKHFPVLRTCLLNSVWGQG	1.33 ± 0.57
TVYYDSIRSMYGYGGGVASR	-0.344 ± 0.49
HCVEVSYKTSYAKELSFRVC	-0.142 ± 1.1
CVFRSYQWWSSHLYFVNVCN	0.667 ± 0.68
DTKIDACIRNSLHGWSRMAR	0.181 ± 0.38
YVEQYLWDSDWSSGI	0.974 ± 0.14

Substance	amyloid nucleation score
NGCFIAFLTMFTYFTCTRVS	-0.76 ± 0.8
NVRDLSMISLGAEVWGRIAV	0.619 ± 0.81
NIYVGSYTLYTTN	5.386 ± 0.047
SAGVTPLEMKSDRIREDAAG	0.629 ± 1
YVGADMELHSRMVTDTYFAS	-0.707 ± 1.1
FWKTLQIFRTMVVN	0.055 ± 0.9
VGCVWAQEDRVPT	-0.715 ± 0.83
NFFQWPSVETWTASIN	-0.144 ± 0.41
SIAFYFFKPLYVLVPNMFGY	6.15 ± 0.073
RGGGAEKLLQSTCNSYVVWL	3.66 ± 0.061
CIFAYKCSIYERESL	0.776 ± 0.49
IFNSNLLLTATRGDSVIWPY	3.26 ± 0.14
LFYLFPELMWDMQLCKVDGW	1.4 ± 0.44
MLSTTLALLTERSFGAY	0.021 ± 0.39
FRHYTANYWYISRRRRMLSV	inactive
SRASKYMYVWVVLITFHCLR	inactive
TITDNSPNKTMIEVEEIRL	0.109 ± 1.1
QNIGGFMARFIIFILLYDHW	0.714 ± 0.84
SFFWDT	-0.524 ± 0.51
IRDNDDLLWMEGRSWKWSRR	0.27 ± 0.29
GYGIMANS	-0.179 ± 0.51
SLLTCILGFPSCPGASMMFQ	7.057 ± 0.067

Substance	amyloid nucleation score
LRISSFDMDNSVWFSRVYNY	0.844 ± 0.26
PEHRSGNKNMYLYRSRDDMN	0.012 ± 0.7
FMPMNVSNKTSELRYFCNGP	0.417 ± 0.74
KHRFCSIEWVK	1.31 ± 0.71
IMRRVLAFSCN	-0.538 ± 0.34
WHMVKSVSTNIV	-0.386 ± 0.58
SSDKLCAYFVREIWTQGAGW	0.507 ± 0.54
LRPKWVAGDVLFQIYPWTRR	0.629 ± 0.85
NSSMVG	-1.16 ± 1.7
KFNIVILLINCAPAFSEMYL	5.475 ± 0.05
CFGASNSLLFVDSSAWGSSG	-0.242 ± 0.5
NEGEVIAELIIFVNPWVTI	-0.599 ± 0.43
VIASELSSCFSLRHNVVTTS	-0.469 ± 1.2
ALMNNGWYILSNFPYCMVIY	5.4 ± 0.064
YIFAAWGGNKTHLCGQIKY	0.862 ± 0.18
TSLPTAVWLKSARQWVEYGL	1.18 ± 0.54
SVNWRYRALFDVRPAPLASQ	-1.74 ± 2.4
AAFSDPRNRLMKPVELKHAL	1.31 ± 0.9
RSHVVTGYARSGRGLLATDM	0.396 ± 0.45
RCLVFTLKRV	0.358 ± 0.61
